Measurements reported in paper PMC12311110 (Nature Communications, 2025).
One block for each molecule: values may come before it.

Tests used:
hRetromer = target: T1, hRetromer (Homo sapiens, UniProt O75436+Q96QK1+Q9UBQ0); test: Isothermal titration calorimetry (ITC) of binding to Retromer; conditions: ITC, 25 °C, 530 µM TBC1D13 titrated into 14 µM Retromer, mean of triplicate titrations
T1 construct: GST (pGEX4T-2, thrombin site plus linker) (N, cleaved yes); made in house; host or cells: E. coli BL21 (DE3)
Procedure: All the bacteria constructs were expressed in BL21 (DE3) cells using the autoinduction method. In brief, cultures grown in complex medium were incubated at 37 °C for 4 h, followed by overnight growth at 20 °C before harvesting for purification. […] In all cases, the soluble fractions clarified by centrifugation were loaded onto pre-equilibrated glutathione sepharose (GE healthcare) for initial purification. For Retromer, an additional Talon® resin purification step was performed to ensure the correct stoichiometry. GST-tag removal was carried out co-column overnight by adding thrombin for Human Retromer and PreScission protease for TBC1D13. The GST-tag removed fraction was further purified by size-exclusion chromatography (SEC) using a Superdex 200 (16/600) column (GE Healthcare) equilibrated with buffer containing 50 mM Tris-HCl pH 7.5, 200 mM NaCl, 2 mM β-ME.
The effect of cyclic peptide was assessed by pre-mixing 140 µM RT-D1 into 14 µM Retromer before titrating with 1 mM of native DENND4C1189-1206 peptide. For the binding experiment between Retromer and TBC1D13, 530 µM of TBC1D13 was titrated into 14 µM Retromer. The effect of the cyclic peptide was tested using the same concentration of RT-D1 as described above. All ITC experiments consisted of an initial 0.4 μl (not used in data processing), followed by 12 serial injections of 3.22 μl each with 180 sec intervals. […]

[1] = system: GLUT1, LAT1, KIDINS220, ATP7A, CTR1 surface levels in HeLa cells; test: Surface biotinylation and streptavidin purification: cell surface protein levels; type: cell-based, human; conditions: Hela cells transduced with GFP-RAB10 T23N; PAR+GFP = 100; mean of n = 3
Procedure: For every kind of protein extraction, buffers were pre-chilled, and cells and samples placed on ice. For basic western blot (WB), cells were lysed in ~ pH 7.2 phosphate buffered saline (PBS) with 1% (v/v) Triton X-100 and protease inhibitors (Thermo Fisher, A32955). The protein concentration was determined with a bicinchoninic acid (BCA) assay kit (Thermo Fisher, 23225) and equal amounts were denaturised (LDS Sample buffer (Thermo Fisher, NP0008), 3% β-mercaptoethanol (Sigma-Aldrich, M6250), 10 min at 95 °C) and resolved by SDS-PAGE on NuPAGE 4–12% precast gels (Invitrogen, NP0336BOX). Protein samples were then transferred onto methanol-activated polyvinylidene fluoride (PVDF) membrane (Immobilon-FL membrane, pore size 0.45μm; Millipore, IPFL00010). The membrane was blocked, then sequentially labelled with primary and secondary antibodies. Fluorescence detected by scanning with a LI-COR Odyssey scanner and Image Studio analysis software (LI-COR Biosciences). Typically, we performed WB in where a single blot is simultaneously probed with antibodies against 2 proteins of interest (distinct antibody species), followed by visualisation with the corresponding secondary antibodies conjugated to distinct spectral dyes. All steps were carried out on ice to prevent surface protein internalisation. […] The protein concentration was determined by BCA. […]

-TΔS (hRetromer): 1.0 ± 1.4 kcal/mol
Kd (hRetromer; single-site binding model, read-out: Kd): 6.3 ± 1.2 µM
B1: hTBC1D13TBC: recombinant full-length human TBC1D13, RAB35 GAP, expressed in bacteria (protein)
chain: MSSLHKSRIADFQDVLKEPSIALEKLRELSFSGIPCEGGLRCLCWKILLNYLPLERASWTSILAKQRELYAQFLREMIIQPGIAKANMGVSREDVTFEDHPLNPNPDSRWNTYFKDNEVLLQIDKDVRRLCPDISFFQRATDYPCLLILDPQNEFETLRKRVEQTTLKSQTVARNRSGVTNMSSPHKNSVPSSLNEYEVLPNGCEAHWEVVERILFIYAKLNPGIAYVQGMNEIVGPLYYTFATDPNSEWKEHAEADTFFCFTNLMAEIRDNFIKSLDDSQCGITYKMEKVYSTLKDKDVELYLKLQEQNIKPQFFAFRWLTLLLSQEFLLPDVIRIWDSLFADDNRFDFLLLVCCAMLMLIREQLLEGDFTVNMRLLQDYPITDVCQILQKAKELQDSK
modifications: left off: GST, end not stated, cleaved
notes: recombinant full-length human TBC1D13, RAB35 GAP, expressed in bacteria

B2: GFP-RAB10T23N (protein, UniProt P61026 1-200, looked up, variant T23N)
Ras-related protein Rab-10: MAKKTYDLLFKLLLIGDSGVGKNCVLFRFSDDAFNTTFISTIGIDFKIKTVELQGKKIKLQIWDTAGQERFHTITTSYYRGAMGIMLVYDITNGKSFENISKWLRNIDEHANEDVERMLLGNKCDMDDKRVVPKGKGEQIAREHGIRFFETSAKANINIEKAFLTLAEDILRKTPVKEPNSENVDISSGGGVTGWKSKCC
modifications: GFP fusion
CTR1 Surface (LAT1 normalized) [1]: 77.05
